Ends that are not written are not given here.
How the values were obtained:
[1] = biological target: T1, PKA-RIIα-GFP (UniProt P42212 1-238 = GFP); test: SPOT membrane, anti-GFP detection
T1 construct: it may be the same construct as m8; also called PKA-RIIa-GFP
Description: Substitution analysis of both allelic peptides ([…]; SEQ ID NO:2 and […]; SEQ ID NO:1) was conducted. Each amino acid of the 27-mer peptide was substituted, one amino acid at a time per peptide, by any naturally occurring L- and D- amino acid. For both peptides complete L- and D- substitution analysis membranes have been screened for binding of PKA-RIα-GFP. After regeneration, the peptide arrays were incubated with PKA-RIIα-GFP. After binding, detection was carried out with an anti-GFP antibody in combination with a peroxidase-labeled secondary antibody.

[2] = biological target: T2, GFP-RIα D/D (bovine, UniProt P00514 1-109); test: SPOT peptide array, anti-GFP detection
T2 construct: range 1-109; His tag cleaved with thrombin; also called dimerization/docking (D/D) domain of bovine RIα (residues 1-109) fused to GFP; not shown: green fluorescent protein (GFP)

[3] = biological target: T3, GFP-RIIα D/D (mouse, UniProt P12367 1-46); test: SPOT peptide array, anti-GFP detection
T3 construct: range 1-46; His tag cleaved with thrombin; also called GFP-RII D/D; D/D domain of mouse RIIα (residues 1-46) fused to GFP; not shown: green fluorescent protein (GFP)

[4] = biological target: T4, Full-length bovine RIα (bovine, UniProt P00514 1-380); test: fluorescence anisotropy
T4 construct: mature; given as full-length

[5] = biological target: T5, Full-length murine RIIα (murine, UniProt P12367 2-401); test: fluorescence anisotropy, labeled peptide
T5 construct: mature; given as full-length
Description: (§1) Binding of each fluorescently labeled peptide to the regulatory subunits was monitored using fluorescence anisotropy. RIα and RIIα were serially diluted beginning at 1 μM and 0.1 μM, respectively, into 10 mM HEPES pH 7.4, 0.15 M NaCl, 3 mM EDTA, 0.005% Surfactant P20 (Biacore) containing either 10 nM or 1 nM of fluorescently labeled peptide for RIα and RIIα, respectively. The samples were equilibrated for at least 1 hour at room temperature and fluorescence anisotropy monitored using a Fluoromax-2 (Jobin Yvon Horiba, SPEX Division, Edison, N.J.) equipped with Glan-Thompson polarizers. The rhodamine-labeled peptide was excited at 541 nm (5-10 nm bandpass) and emission monitored at 575 nm (5-10 nm bandpass). The anisotropy was calculated directly with the Fluoromax software using the following equation: […]
(§2) Several additional truncated and substituted peptides were synthesized and their affinity to RIα and RIIα evaluated using fluorescence anisotropy (see Table 8). Binding was evaluated for both RIα and RIIα0 using fluorescence anisotropy as described herein. Substituted residues are in bold Table 8. Tryptophan at a position corresponding to residue 21 of SEQ ID NO:2 is important for discriminating against binding to the RIIα subunit.

[6] = biological target: T4, Full-length bovine RIα; test: fluorescence anisotropy, labeled peptide
Description: as §1, §2

[7] = biological target: T5, Full-length murine RIIα; test: fluorescence anisotropy, labeled peptide, n = 3
Description: as §1
(§3) The binding affinities of three peptides designated RIIα-specific (A13L; SEQ ID NO:109), RIα-specific (Q9F, V21W, and M25F; SEQ ID NO:103) and null (A17E and V21W; SEQ ID NO:110) were compared with the unsubstituted peptide (FIG. 2 and Table 7) using fluorescence anisotropy. […] The null peptide bound very poorly to RIα and binding to RIIα could not be detected (FIG. 2).

[8] = biological target: T4, Full-length bovine RIα; test: fluorescence anisotropy, labeled peptide, n = 3
Description: as §1, §3

[9] = biological target: T4, Full-length bovine RIα; test: fluorescence anisotropy, labeled peptide with increasing full-length RIα; the concentration on the axis is that of the protein
Description: as §1, §3

[10] = biological target: T5, Full-length murine RIIα; test: fluorescence anisotropy, labeled peptide with increasing full-length RIIα; the concentration on the axis is that of the protein
Description: as §1, §3

[11] = biological target: T6, RIα isoform of the PKA regulatory subunit (Bos taurus (Bovine), UniProt P00514 2-380); test: fluorescence anisotropy
T6 construct: also called R1α; PKA-RIα
T6 sequence (P00514 2-380 limits assumed): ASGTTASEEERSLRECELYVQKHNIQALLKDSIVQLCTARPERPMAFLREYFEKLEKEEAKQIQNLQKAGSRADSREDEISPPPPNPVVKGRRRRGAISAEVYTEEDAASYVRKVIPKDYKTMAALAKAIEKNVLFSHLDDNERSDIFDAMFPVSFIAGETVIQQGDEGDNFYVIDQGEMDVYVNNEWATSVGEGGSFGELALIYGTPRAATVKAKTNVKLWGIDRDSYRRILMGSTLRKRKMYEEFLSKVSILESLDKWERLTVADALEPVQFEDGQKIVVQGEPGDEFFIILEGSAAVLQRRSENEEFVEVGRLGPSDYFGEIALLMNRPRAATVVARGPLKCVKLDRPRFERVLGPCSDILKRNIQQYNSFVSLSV

T4 sequence (P00514 whole entry): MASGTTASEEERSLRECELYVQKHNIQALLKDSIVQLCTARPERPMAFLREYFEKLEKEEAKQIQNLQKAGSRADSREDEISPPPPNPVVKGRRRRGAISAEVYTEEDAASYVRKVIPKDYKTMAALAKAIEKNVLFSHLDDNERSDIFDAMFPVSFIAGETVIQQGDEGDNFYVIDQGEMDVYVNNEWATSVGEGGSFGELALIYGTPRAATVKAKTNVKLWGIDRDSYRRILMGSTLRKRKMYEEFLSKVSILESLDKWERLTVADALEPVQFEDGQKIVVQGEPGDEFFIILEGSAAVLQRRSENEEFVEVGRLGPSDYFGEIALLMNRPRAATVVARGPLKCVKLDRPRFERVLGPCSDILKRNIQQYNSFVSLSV
T5 sequence (P12367 2-401): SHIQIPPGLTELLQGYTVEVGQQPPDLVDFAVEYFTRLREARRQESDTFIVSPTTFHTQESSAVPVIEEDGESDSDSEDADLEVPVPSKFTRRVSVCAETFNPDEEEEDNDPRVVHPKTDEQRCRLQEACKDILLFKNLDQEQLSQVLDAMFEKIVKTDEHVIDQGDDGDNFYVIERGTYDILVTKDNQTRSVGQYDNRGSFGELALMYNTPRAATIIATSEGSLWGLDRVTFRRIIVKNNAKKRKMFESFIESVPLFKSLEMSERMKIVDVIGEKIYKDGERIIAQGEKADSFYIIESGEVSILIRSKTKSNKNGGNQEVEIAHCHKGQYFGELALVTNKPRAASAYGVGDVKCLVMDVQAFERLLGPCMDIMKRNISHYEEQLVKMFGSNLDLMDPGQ
T2 sequence (P00514 1-109): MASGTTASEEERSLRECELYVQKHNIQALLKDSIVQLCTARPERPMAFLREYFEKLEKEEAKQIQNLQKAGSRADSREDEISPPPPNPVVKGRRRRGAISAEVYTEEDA
T3 sequence (P12367 1-46): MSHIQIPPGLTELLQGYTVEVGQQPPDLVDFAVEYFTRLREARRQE

| Binder | fold signal intensity against PKA-RIα-GFP [1] [fold] | Kd [5] [nM] | Kd [6] [nM] | Kd [7] [nM] | Kd [8] [nM] | EC50 (read off the curve) [9] [nM] | EC50 (read off the curve) [10] [nM] | other results |
| --- | --- | --- | --- | --- | --- | --- | --- | --- |
| VQGNTDEAQEELAWKIAKMIVSDIMQQ (also: cellulose-bound, also called Ile variant 27-mer; I24 peptide) [VQGNTDEAQEELAWKIAKMIVSDIMQQ (SEQ ID NO:1), cellulose-bound] | ~10 | – | – | – | – | – | – | binding result [2]: binds; binding result [3]: binds |
| VQGNTDEAQEELAWKIAKMIVSDVMQQ (also: cellulose-bound, also called Val variant 27-mer; V24 peptide) [VQGNTDEAQEELAWKIAKMIVSDVMQQ (SEQ ID NO:2), cellulose-bound] | ~10 | – | – | – | – | – | – | – |
| FEELAWKIAKMIWSDVFQQC(tetramethylrhodamine‑5‑maleimide)-NH2 (also called PV-38; RIα-specific (Q9F, V21W, M25F)) [AKB (RI), RI specific (SEQ ID NO:103) FEELAWKIAKMIWSDVFQQC, rhodamine-labeled] | – | 456 | 5.2 | 456 | 5.2 | ~10 | ~500 | fold enhancement of binding against the unsubstituted peptide [4]: 10 fold |
| VQGNTDEAQEELAWKIAKMIVSDVMQQC(tetramethylrhodamine‑5‑maleimide)-NH2 (also called unsubstituted peptide) [AKB (dual), WT (SEQ ID NO:108) VQGNTDEAQEELAWKIAKMIVSDVMQQC, rhodamine-labeled] | – | 2.2 | 48 | 2.2 | 48 | ~50 | ~3 | fold increase in binding affinity against the Ile variant [11]: ~3 fold |
| VQGNTDEAQEELAWKIEKMIWSDVMQQC(tetramethylrhodamine‑5‑maleimide)-NH2 (also called null peptide (A17E and V21W)) [AKB (null) (SEQ ID NO:110) VQGNTDEAQEELAWKIEKMIWSDVMQQC, rhodamine-labeled] | – | – | – | > 10000 | 998 | – | – | – |
| VQGNTDEAQEELLWKIAKMIVSDVMQQC(tetramethylrhodamine‑5‑maleimide)-NH2 (also called RIIα-specific (A13L)) [AKB (RII), RII specific (SEQ ID NO:109) VQGNTDEAQEELLWKIAKMIVSDVMQQC, rhodamine-labeled] | – | – | – | 2.7 | 2490 | – | ~3 | – |

Source: US20030232420A1 (SEQUENOM, published 2003)
